Experiment [1] addresses T1, dynein light chain-1/protein inhibitor of nitric oxide synthase (DLC1/PIN), amino acids 1-89 (human, UniProt P63167 1-89).
T1 construct: Used both as in vitro translated 35S-labeled protein (aa 1-89) and as the endogenous protein of human cell lines (MCF-7, Ishikawa)
The experiment in a line: GST pull-down with in vitro translated DLC1/PIN.

Experiment [2] concerns the target T2, estrogen receptor alpha (ER), full-length (UniProt P03372 1-595).
T2 construct: Used as in vitro translated 35S-labeled full-length ER and as the endogenous ER of human cell lines (Ishikawa, MCF-7 derivatives); also called ERα; ERá
T2 sequence (looked up): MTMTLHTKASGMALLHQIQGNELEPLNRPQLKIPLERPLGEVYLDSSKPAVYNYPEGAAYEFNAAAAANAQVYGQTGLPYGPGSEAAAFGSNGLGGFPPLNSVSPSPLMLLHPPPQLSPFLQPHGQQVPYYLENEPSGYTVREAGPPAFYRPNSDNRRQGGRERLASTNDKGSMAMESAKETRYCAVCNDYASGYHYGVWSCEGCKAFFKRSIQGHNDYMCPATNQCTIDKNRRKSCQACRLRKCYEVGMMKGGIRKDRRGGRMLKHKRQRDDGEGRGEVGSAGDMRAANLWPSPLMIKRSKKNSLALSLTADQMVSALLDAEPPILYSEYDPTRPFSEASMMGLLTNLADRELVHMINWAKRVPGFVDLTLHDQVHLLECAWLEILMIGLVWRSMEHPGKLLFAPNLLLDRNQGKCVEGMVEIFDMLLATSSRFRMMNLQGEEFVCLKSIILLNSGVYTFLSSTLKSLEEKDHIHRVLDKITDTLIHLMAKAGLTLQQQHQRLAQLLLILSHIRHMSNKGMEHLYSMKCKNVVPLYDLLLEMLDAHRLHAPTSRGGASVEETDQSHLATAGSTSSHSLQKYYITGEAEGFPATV
Description: GST pull-down with in vitro translated 35S-ER.

For experiment [3], the target named is T1, dynein light chain-1/protein inhibitor …. The experiment in a line: immunoprecipitation with HA antibody from Tet on-HA-Pak1-T423E MCF-7 cells, immunoblot. A general note: In western blotting, separated proteins are transferred to a membrane and probed.
Experiment [4] concerns the target T2, estrogen receptor alpha (ER), …. The experiment in a line: immunoprecipitation with anti-Pak1 Ab, immunoblot with ERα Ab.

The source of these data is patent publication US20040208880A1 (University of Texas, published 2004).

B1: GST-Pak1 auto inhibitory domain (other)
chain: RFYRSILPGDKTNKKKEKERPEISLPSDFEHTIHVGFDAVTGEFTGMPEQWARLLQTSNITKSEQKKNPQAVLDVLEFYN
notes: not shown: glutathione-S-transferase (GST) fusion partner
Regarding B1, the binding result in experiment [1] was “no binding”.

B2: GST-Pak1 Cdc42/Rac-interacting (CRIB) domain (other)
chain: ISLPSDFEHTIHVGFDAVTGEFTGMPEQWARLLQTSNITKSEQKKNPQAVLDVLEFYNSKKTSNSQKYMSFTDKS
notes: as for B1
On to B2, for which, in experiment [1], the binding result is given as “no binding”.

B3: GST-DLC1 deletion construct lacking the C-terminal amino acids 67-89 (other)
chain: MCDRKAVIKNADMSEEMQQDSVECATQALEKYNIEKDIAAHIKKEFDKKYNPTWHCIVGRNFGSYV
notes: not shown: GST fusion partner at the N end and any linker to it
Consider B3, for which the binding result in experiment [2] is reported as “no binding”.

B4: HA-tagged T423E Pak1 (catalytically active Pak1) (enzyme)
chain: MSNNGLDIQDKPPAPPMRNTSTMIGVGSKDAGTLNHGSKPLPPNPEEKKKKDRFYRSILPGDKTNKKKEKERPEISLPSDFEHTIHVGFDAVTGEFTGMPEQWARLLQTSNITKSEQKKNPQAVLDVLEFYNSKKTSNSQKYMSFTDKSAEDYNSSNALNVKAVSETPAVPPVSEDEDDDDDDATPPPVIAPRPEHTKSVYTRSVIEPLPVTPTRDVATSPISPTENNTTPPDALTRNTEKQKKKPKMSDEEILEKLRSIVSVGDPKKKYTRFEKIGQGASGTVYTAMDVATGQEVAIKQMNLQQQPKKELIINEILVMRENKNPNIVNYLDSYLVGDELWVVMEYLAGGSLTDVVTETCMDEGQIAAVCRECLQALEFLHSNQVIHRDIKSDNILLGMDGSVKLTDFGFCAQITPEQSKRSEMVGTPYWMAPEVVTRKAYGPKVDIWSLGIMAIEMIEGEPPYLNENPLRALYLIATNGTPELQNPEKLSAIFRDFLNRCLDMDVEKRGSAKELLQHQFLKIAKPLSSLTPLIAAAKEATKNNH
notes: Expressed in MCF-7 cells under a Tet-on promoter; also called HA-Pak1-T423E; not shown: HA tag
Take B4: the binding result in experiment [3] was “binds”.

B5: p21-activated protein kinase 1 (Pak1), full-length, amino acids 1-545 (enzyme)
chain: MSNNGLDIQDKPPAPPMRNTSTMIGVGSKDAGTLNHGSKPLPPNPEEKKKKDRFYRSILPGDKTNKKKEKERPEISLPSDFEHTIHVGFDAVTGEFTGMPEQWARLLQTSNITKSEQKKNPQAVLDVLEFYNSKKTSNSQKYMSFTDKSAEDYNSSNALNVKAVSETPAVPPVSEDEDDDDDDATPPPVIAPRPEHTKSVYTRSVIEPLPVTPTRDVATSPISPTENNTTPPDALTRNTEKQKKKPKMSDEEILEKLRSIVSVGDPKKKYTRFEKIGQGASGTVYTAMDVATGQEVAIKQMNLQQQPKKELIINEILVMRENKNPNIVNYLDSYLVGDELWVVMEYLAGGSLTDVVTETCMDEGQIAAVCRECLQALEFLHSNQVIHRDIKSDNILLGMDGSVKLTDFGFCAQITPEQSKRSTMVGTPYWMAPEVVTRKAYGPKVDIWSLGIMAIEMIEGEPPYLNENPLRALYLIATNGTPELQNPEKLSAIFRDFLNRCLDMDVEKRGSAKELLQHQFLKIAKPLSSLTPLIAAAKEATKNNH
notes: Used both as in vitro translated 35S-labeled full-length protein and as the endogenous protein of human cell lines
As for B5, the binding result in experiment [4] is “binds”.

B6: GST-Pak1 N-terminal domain (amino acids 1-132) (other)
chain: MSNNGLDIQDKPPAPPMRNTSTMIGVGSKDAGTLNHGSKPLPPNPEEKKKKDRFYRSILPGDKTNKKKEKERPEISLPSDFEHTIHVGFDAVTGEFTGMPEQWARLLQTSNITKSEQKKNPQAVLDVLEFYN
notes: as for B1
For the molecule B6, the binding result in experiment [1] was “no binding”.
